Source: patent US20230105209A1 (ACADEMIA SINICA, published 2023)

Target: SARS-CoV-2 spike S2 (SARS-CoV-2, UniProt P0DTC2 686-1213)
Assay: ELISA

B1: m31A7 monoclonal antibody (chimeric IgG1) (antibody, V domains shown)
VH: EVQLQQSGPEMVKPGASVKISCKTSGYTFTEYTIYWVKQSHGKSLEWLGGINPNIGDTTYNQKFKGKATLTVDTSSSTAYMELRSLTSEDSAVYYCAREVYNYSFAYWGQGTLVTVSA
VL: DIVMSQSPSSLAVSVGEKVTMSCKSSQSLLYSSNQKNYLAWYQQKLGQTPKLLIYWASSRESGVPDRFTGSGSGTDFTLTISSVRAEDLAVYYCQQYYRYPLTFGVGTKLELKR
notes: also called m31A7 mAb; m31A7 IgG
B1: no binding.
